Numbering of substitutions follows the chain as printed. Numbers in names are those of the source.
B1: target 1 C6U,A16G (mixed)
RNA 1: CACCCGUGCAAAAAUGCAGGGGUCUAAAACUGAGCGGAUAACCUCUCUAUGG
RNA 2: GGGAAUGGAUCCACAUCUACGAAUUCGUACCAUAGGGAGGUUAUCUGCUCACCGAGAUCGGAAGAGCACACGU
B2: target 1 insA 3' of 7,insG 3' of 3 (mixed)
RNA 1: B1 RNA 1
RNA 2: GGGAAUGGAUCCACAUCUACGAAUUCGUACCAUAGAGAGGUUAUCACGCUGCACCGAGAUCGGAAGAGCACACGU
B3: target 1 A1G,C2G (mixed)
RNA 1: B1 RNA 1
RNA 2: B1 RNA 2 with G36A, U46C, C50G, A51G
B4: target 2 MT 5'PFS GGC 3'PFS CUU (mixed)
RNA 1: CACCCGUGCAAAAUUGCAGGGGUCUAAAACCUUCUCCAAAUUGUUUCAUCCU
RNA 2: GGGAAUGGAUCCACAUCUACGAAUUCGGCAGGAUGAAACAAUUUGGAGAAGCUUAGAUCGGAAGAGCACACGU
B5: target 2 MT 5'PFS UGA 3'PFS CCA (mixed)
RNA 1: B4 RNA 1
RNA 2: B4 RNA 2 with G27U, C29A, U53C, U54A
B6: target 2 MT 5'PFS CGA 3'PFS AUU (mixed)
RNA 1: B4 RNA 1
RNA 2: B4 RNA 2 with G27C, C29A, C52A
B7: target 2 MT 5'PFS GAC 3'PFS CGC (mixed)
RNA 1: B4 RNA 1
RNA 2: B4 RNA 2 with G28A, U53G, U54C
B8: target 2 MT 5'PFS UUA 3'PFS CAU (mixed)
RNA 1: B4 RNA 1
RNA 2: B4 RNA 2 with G27U, G28U, C29A, U53A
B9: target 2 MT 5'PFS ACC 3'PFS UGA (mixed)
RNA 1: B4 RNA 1
RNA 2: B4 RNA 2 with G27A, G28C, C52U, U53G, U54A
B10: target 2 MT 5'PFS GAG 3'PFS ACG (mixed)
RNA 1: B4 RNA 1
RNA 2: B4 RNA 2 with G28A, C29G, C52A, U53C, U54G
B11: target 2 MT 5'PFS UUG 3'PFS CCU (mixed)
RNA 1: B4 RNA 1
RNA 2: B4 RNA 2 with G27U, G28U, C29G, U53C
B12: target 2 MT 5'PFS GAG 3'PFS ACA (mixed)
RNA 1: B4 RNA 1
RNA 2: B4 RNA 2 with G28A, C29G, C52A, U53C, U54A
B13: target 2 MT 5'PFS CGU 3'PFS ACU (mixed)
RNA 1: B4 RNA 1
RNA 2: B4 RNA 2 with G27C, C29U, C52A, U53C
B14: target 2 MT 5'PFS GUA 3'PFS UCC (mixed)
RNA 1: B4 RNA 1
RNA 2: B4 RNA 2 with G28U, C29A, C52U, U53C, U54C
B15: target 2 MT 5'PFS GAG 3'PFS ACC (mixed)
RNA 1: B4 RNA 1
RNA 2: B4 RNA 2 with G28A, C29G, C52A, U53C, U54C
B16: target 2 MT 5'PFS UGA 3'PFS CCG (mixed)
RNA 1: B4 RNA 1
RNA 2: B4 RNA 2 with G27U, C29A, U53C, U54G
B17: target 2 MT 5'PFS ACC 3'PFS UGC (mixed)
RNA 1: B4 RNA 1
RNA 2: B4 RNA 2 with G27A, G28C, C52U, U53G, U54C
B18: target 2 MT 5'PFS CGU 3'PFS ACG (mixed)
RNA 1: B4 RNA 1
RNA 2: B4 RNA 2 with G27C, C29U, C52A, U53C, U54G
B19: target 2 MT 5'PFS ACC 3'PFS UGU (mixed)
RNA 1: B4 RNA 1
RNA 2: B4 RNA 2 with G27A, G28C, C52U, U53G
B20: target 2 MT 5'PFS CGC 3'PFS AUU (mixed)
RNA 1: B4 RNA 1
RNA 2: B4 RNA 2 with G27C, C52A
B21: target 2 MT 5'PFS GGG 3'PFS ACG (mixed)
RNA 1: B4 RNA 1
RNA 2: B4 RNA 2 with C29G, C52A, U53C, U54G
B22: target 2 MT 5'PFS UUA 3'PFS CAC (mixed)
RNA 1: B4 RNA 1
RNA 2: B4 RNA 2 with G27U, G28U, C29A, U53A, U54C
B23: target 2 MT 5'PFS GGG 3'PFS ACC (mixed)
RNA 1: B4 RNA 1
RNA 2: B4 RNA 2 with C29G, C52A, U53C, U54C
B24: target 2 MT 5'PFS UUA 3'PFS CAA (mixed)
RNA 1: B4 RNA 1
RNA 2: B4 RNA 2 with G27U, G28U, C29A, U53A, U54A
B25: target 2 MT 5'PFS UUG 3'PFS CCG (mixed)
RNA 1: B4 RNA 1
RNA 2: B4 RNA 2 with G27U, G28U, C29G, U53C, U54G
B26: target 2 MT 5'PFS ACA 3'PFS ACU (mixed)
RNA 1: B4 RNA 1
RNA 2: B4 RNA 2 with G27A, G28C, C29A, C52A, U53C
B27: target 2 MT 5'PFS UAG 3'PFS CAC (mixed)
RNA 1: B4 RNA 1
RNA 2: B4 RNA 2 with G27U, G28A, C29G, U53A, U54C
B28: target 2 MT 5'PFS UUA 3'PFS CAG (mixed)
RNA 1: B4 RNA 1
RNA 2: B4 RNA 2 with G27U, G28U, C29A, U53A, U54G
B29: target 2 MT 5'PFS CGA 3'PFS AUC (mixed)
RNA 1: B4 RNA 1
RNA 2: B4 RNA 2 with G27C, C29A, C52A, U54C
B30: target 2 MT 5'PFS GUA 3'PFS UCA (mixed)
RNA 1: B4 RNA 1
RNA 2: B4 RNA 2 with G28U, C29A, C52U, U53C, U54A
B31: target 2 MT 5'PFS GGG 3'PFS ACU (mixed)
RNA 1: B4 RNA 1
RNA 2: B4 RNA 2 with C29G, C52A, U53C
B32: target 2 MT 5'PFS GAG 3'PFS ACU (mixed)
RNA 1: B4 RNA 1
RNA 2: B4 RNA 2 with G28A, C29G, C52A, U53C
B33: target 2 MT 5'PFS GGG 3'PFS ACA (mixed)
RNA 1: B4 RNA 1
RNA 2: B4 RNA 2 with C29G, C52A, U53C, U54A

Target: T1, EsCas13d, nuclease-dead (Eubacterium siraeum, UniProt B0MS50, R295A;H300A;R849A;H854A)
T1 sequence: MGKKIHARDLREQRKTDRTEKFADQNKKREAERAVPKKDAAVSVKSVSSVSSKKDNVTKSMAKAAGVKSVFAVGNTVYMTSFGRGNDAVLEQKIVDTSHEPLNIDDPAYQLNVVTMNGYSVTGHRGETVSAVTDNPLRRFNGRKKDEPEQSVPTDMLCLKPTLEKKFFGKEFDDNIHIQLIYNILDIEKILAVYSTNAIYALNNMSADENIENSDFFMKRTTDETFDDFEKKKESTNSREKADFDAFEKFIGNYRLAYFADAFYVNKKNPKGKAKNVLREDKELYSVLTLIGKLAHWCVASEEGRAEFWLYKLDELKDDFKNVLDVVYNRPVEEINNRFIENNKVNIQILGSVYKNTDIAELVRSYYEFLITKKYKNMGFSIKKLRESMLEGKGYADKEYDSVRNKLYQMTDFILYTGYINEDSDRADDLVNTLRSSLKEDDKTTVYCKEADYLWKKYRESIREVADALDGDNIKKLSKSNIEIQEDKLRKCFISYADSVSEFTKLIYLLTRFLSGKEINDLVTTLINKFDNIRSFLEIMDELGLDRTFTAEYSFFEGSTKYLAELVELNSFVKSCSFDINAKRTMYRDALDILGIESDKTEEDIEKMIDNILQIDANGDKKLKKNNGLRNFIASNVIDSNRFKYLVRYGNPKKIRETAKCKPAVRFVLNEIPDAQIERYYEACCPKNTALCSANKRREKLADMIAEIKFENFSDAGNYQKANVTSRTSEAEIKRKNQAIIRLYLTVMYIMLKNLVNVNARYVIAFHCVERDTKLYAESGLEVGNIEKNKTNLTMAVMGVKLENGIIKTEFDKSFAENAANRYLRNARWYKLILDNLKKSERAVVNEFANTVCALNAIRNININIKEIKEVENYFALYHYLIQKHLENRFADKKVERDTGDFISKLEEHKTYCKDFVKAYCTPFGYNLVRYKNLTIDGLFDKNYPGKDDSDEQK
Experiment: crRNA (strand 1, pre-loaded); Mg2+; 40 mM Tris-HCl pH 7.5, 150 mM NaCl, 6 mM MgCl2, 1 mM DTT, 0.1% Tween-20, 0.2 mg/ml BSA; 25 C; 10 min per concentration, then washed
Conditions: tags: His6-TwinStrep-SUMO cleaved; N-terminal SNAP kept (SNAP-Surface 488); label: 3' end held by stalled T7 RNA polymerase

Binder	Kd
B1	31.9 ± 2.2 nM
B2	4.65 ± 0.13 nM
B3	5.54 ± 0.24 nM
B4	17.6 ± 1.8 nM
B5	15.6 ± 2.8 nM
B6	10.6 ± 3.3 nM
B7	14.8 ± 3.2 nM
B8	14.3 ± 1.3 nM
B9	8 ± 1.4 nM
B10	6.7 ± 0.32 nM
B11	~80 nM
B12	9.6 ± 1.6 nM
B13	23 ± 5 nM
B14	29 ± 5 nM
B15	14 ± 4 nM
B16	9.2 ± 1 nM
B17	7.7 ± 2.2 nM

Binder	Kd
B18	21 ± 5 nM
B19	18 ± 6 nM
B20	5 ± 0.8 nM
B21	10.4 ± 0.6 nM
B22	30 ± 7 nM
B23	22 ± 4 nM
B24	14.4 ± 2.6 nM
B25	16.8 ± 1.4 nM
B26	6.3 ± 1.3 nM
B27	2.69 ± 0.34 nM
B28	18.5 ± 1.9 nM
B29	7.1 ± 1.4 nM
B30	10.3 ± 1.2 nM
B31	9.3 ± 0.4 nM
B32	8.1 ± 0.7 nM
B33	9.4 ± 0.8 nM
